Test results as given in US20160215061A1.

Target: recombinant mouse FcγRIIB expressed in NS0 cells (mouse) (UniProt P08101)
Assay: SPR (Biacore); capture sample on chip, rmFcgRIIB (NSO) injected; reference Herceptin

Sequence of recombinant mouse FcγRIIB expressed in NS0 cells (mouse) (P08101 40-207 limits assumed): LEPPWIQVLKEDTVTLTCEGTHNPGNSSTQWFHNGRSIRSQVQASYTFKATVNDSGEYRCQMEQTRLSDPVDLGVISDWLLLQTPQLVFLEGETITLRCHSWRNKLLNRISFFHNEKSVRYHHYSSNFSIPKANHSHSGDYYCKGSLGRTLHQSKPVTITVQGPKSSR

Fold Increase in RU vs WT IgG1: 0.5 fold
Substance: F243A/V264A Fc (SEQ ID NO: 7) (from UniProt P0DOX5 218-448)
